Experimental findings from patent US20150210738, “MOLECULAR SLEDS AND USES […]” (The Broad Institute, Inc., published 2015) are described below.

No end group written: not given here.

Data set [1] addresses (pVIc-biotin):streptavidin complex (Human adenovirus 2 / Streptomyces …, UniProt P03274;P22629 P03274:240-250,P22629:25-183). The experiment in a line: FRET quenching, 20 mM Na phosphate pH 7.5, 0.05% DDM. Conditions: tags: pVIc Cys10' PEG-biotin, streptavidin-Alexa Fluor 546 (Invitrogen); label: 5'-fluorescein.
Data set [2] has as its target streptavidin-Alexa Fluor 546 (UniProt P22629 P22629:25-183). The experiment in a line: FRET; streptavidin alone does not bind. Conditions: tags: Alexa Fluor 546; Invitrogen; chain copies: 4; label: 5'-fluorescein.
Data set [3] addresses T1, pVIc (C-terminal peptide of pVI) (Human adenovirus 2, UniProt P03274).
T1 chain: GVQSLKRRRCF
The experiment in a line: FP; Cy3B-pVIc, 20 mM Hepes pH 7, 0.025% DDM, 10 mM NaCl; 7 bp site. Conditions: protein: synthetic; tags: synthetic peptide; Cy3B at Cys10' in pH 7 and sliding assays; label: 5'-fluorescein (unlabeled with Cy3B-labeled protein).

Data set [4] concerns the target T2, random peptide (scrambled pVIc) (synthetic).
T2 chain: SFRRCGLRQVK
Kind of data set: FP; scrambled pVIc; does not slide on DNA. Conditions: tags: Cy3B at Cys5'; label: 5'-fluorescein (unlabeled with Cy3B-labeled protein).

The target in data set [5] is pVI (precursor to protein VI) (Human adenovirus 2, UniProt P03274 P03274:1-250). Kind of data set: FP; 0.02 M NaCl, pH 8; 155, 328, 449, 1044 nM at 0.03, 0.04, 0.05, 0.06 M NaCl; 2.9 ion pairs. Conditions: label: 5'-fluorescein (unlabeled with Cy3B-labeled protein).
Data set [6] addresses T3, 8-Actin-C (beta-actin C-terminal peptide).
T3 chain: SIVHRKC(Cy3B)F
Kind of data set: FP; Cy3B-peptide, pH 7. Conditions: protein: synthetic; tags: synthetic peptide; Cy3B at Cys7'; label: 5'-fluorescein (unlabeled with Cy3B-labeled protein).

Chain of pVI (precursor to protein VI) (P03274 whole entry, one chain of several): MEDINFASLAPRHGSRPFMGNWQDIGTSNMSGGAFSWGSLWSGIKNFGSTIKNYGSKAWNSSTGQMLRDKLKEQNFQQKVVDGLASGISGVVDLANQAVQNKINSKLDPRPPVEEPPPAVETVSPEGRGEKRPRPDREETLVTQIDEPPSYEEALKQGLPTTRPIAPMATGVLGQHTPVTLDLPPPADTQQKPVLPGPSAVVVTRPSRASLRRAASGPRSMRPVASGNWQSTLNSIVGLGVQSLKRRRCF
Chain of (pVIc-biotin):streptavidin complex (P22629 25-183, one chain of several): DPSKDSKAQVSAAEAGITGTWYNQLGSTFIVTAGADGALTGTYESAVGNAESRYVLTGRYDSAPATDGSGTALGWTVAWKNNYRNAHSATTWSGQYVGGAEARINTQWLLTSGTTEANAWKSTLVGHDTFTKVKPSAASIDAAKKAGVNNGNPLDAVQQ
Chain of streptavidin-Alexa Fluor 546 (P22629 25-183, one chain of several): as above

B1: 18-mer dsDNA (dsDNA)
DNA 1: CAGGAAACAGCTATGACC
DNA 2: GGTCATAGCTGTTTCCTG
B1: the Kd in data set [1] is 35 nM. Besides, the binding result in data set [2] was “no binding”.

B2: 12-mer dsDNA (dsDNA)
DNA 1: GACGACTAGGAT
DNA 2: ATCCTAGTCGTC
On to B2, for which the Kd came to 264 nM in data set [3], 646 nM in data set [4], 55 nM in data set [5] and 5 nM in data set [6].
